In experiment [1] the target is HIV broadly neutralizing antibody 2G12. The experiment can be described thus: radiolabelled glycopeptide with 2G12 in solution, protein G bead capture, scintillation counting.
For experiment [2] the target is unchanged. The experiment can be described thus: radiolabelled glycopeptide with 2G12, protein G bead capture (end tied by Table 4).
Experiment [3] shares this target. The experiment can be described thus: radiolabelled glycopeptide with 2G12, protein G bead capture; low end tied to 10F6 by Table 4.
The target is the same in experiment [4]. The experiment can be described thus: radiolabelled glycopeptide with 2G12, protein G bead capture; high end tied to 10V8 by Table 4.
For experiment [5] the target is unchanged. The experiment can be described thus: BLI curve fit, 1 nM 2G12.
For experiment [6] the target is unchanged. The experiment can be described thus: BLI curve fit, 0.5 nM 2G12.
Experiment [7] shares this target. Briefly: BLI curve fit, 32 nM 2G12.
Experiment [8] has the same target. The experiment can be described thus: BLI curve fit, 16 nM 2G12.
Experiment [9] shares this target. Briefly: BLI curve fit, 2 nM 2G12.
Experiment [10] has the same target. Briefly: BLI curve fit, 4 nM 2G12.
Experiment [11] has the same target. Briefly: BLI curve fit, 8 nM 2G12.
The target is the same in experiment [12]. Briefly: BLI (BLItz), glycopeptide on streptavidin sensor, 2G12 in solution, global 1:1 fit.

One may read the Kd as the free concentration of one partner at which half of the binding sites on the other are occupied at equilibrium, for simple one-to-one binding. A high value points to weaker binding. What is called koff is a measure of how fast the partners let go of each other. Low values mean slow dissociation, high ones fast dissociation. Usually kon stands for the second-order rate constant of association. Read a high kon as faster complex formation.

Primed or numbered codes have the meaning given here. Where no end group is shown, it is not given here. [ ]: non-standard residue; d: D form. The star is where a group is joined. Hpra′ = its azide, alkyne or alkene has reacted where a group follows in round brackets; maleimide‑biotin = maleimide-biotin reagent joined to deprotected Cys; Man9″ = Man9 glycan attached to Hpg by CuAAC click with Man9-azide; Man9(3) = Man9-azide click-glycosylated onto Hpg; For = O=C*

B1: glycopeptide 10F3 -C15S (peptide)
peptide: For-[Hpra′](Man9)DTLHLKQIGG[Hpra′](Man9)PNSITQQDVR[Hpra′](Man9)TSIPYTYTWPGSGSLGHHHHHHRDYKDDDDK
For B1, in experiment [1], the Fmax came out at 63% and the Kd was found to be 2.91 nM.

B2: glycopeptide 10F2 (Fixed library, round 10), ribosomally translated (peptide)
peptide: For-[Hpra′](Man9″)HPYNTSRTSA[Hpra′](Man9″)[Hpra′](Man9″)AALK[Hpra′](Man9″)QVTD[Hpra′](Man9″)YALALFHRILGSGSLGHHHHHHRDYKDDDDK
In turn, B2 yielded a Kd in [2] of 0.5 to 0.6 nM. In [1], this molecule showed an Fmax of 86% and a Kd of 0.6 nM.

B3: glycopeptide 10F12 (Fixed library, round 10) (peptide)
peptide: For-[Hpra′](Man9″)CYVTVIPA[Hpra′](Man9″)N[Hpra′](Man9″)PEARLGIVCH[Hpra′](Man9″)PGIRRGKALYGSGSLGHHHHHHRDYKDDDDK
modifications: not fully specified (bridges); cysteine pairing not given here
B3: in experiment [1], the Fmax came out at 90% and the Kd is 0.77 nM.

B4: glycopeptide 10F5-C10,25S (peptide)
peptide: For-[Hpra′](Man9(3))SPHLPVLLSK[Hpra′](Man9(3))VLNDGRRIVQ[Hpra′](Man9(3))SSELP[Hpra′](Man9(3))VRRSGSGSLGHHHHHHRDYKDDDDK
In experiment [1], B4 displayed an Fmax of 94% and a Kd of 2.5 nM.

B5: glycopeptide 10F5-Δ11 (peptide)
peptide: For-[Hpra′](Man9(3))VLNDGRRIVQ[Hpra′](Man9(3))SCELP[Hpra′](Man9(3))VRRSGSGSLGHHHHHHRDYKDDDDK
Consider B5, for which, in experiment [1], the Fmax turned out to be 17% and the Kd is above 200 nM.

B6: glycopeptide 10F2-Δ11 (peptide)
peptide: For-[Hpra′](Man9(3))[Hpra′](Man9(3))AALK[Hpra′](Man9(3))QVTD[Hpra′](Man9(3))YALALFHRILGSGSLGHHHHHHRDYKDDDDK
B6: in experiment [1], the Fmax came out at 70% and the Kd is 0.89 nM.

B7: glycopeptide 10F3 (Fixed library, round 10) (peptide)
peptide: For-[Hpra′](Man9(3))DTLHLKQIGG[Hpra′](Man9(3))PNCITQQDVR[Hpra′](Man9(3))TSIPYTYTWPGSGSLGHHHHHHRDYKDDDDK
In [1], B7 gave an Fmax of 100% and a Kd of 3 nM.

B8: glycopeptide 10V1-Δ9 (peptide)
peptide: For-[Hpra′](Man9(3))RSIPWYTYRWLPNGSGSLGHHHHHHRDYKDDDDK
Take B8: in experiment [1], the Fmax was 20% and the Kd was found to be 7.5 nM.

B9: glycopeptide 10V9 (Variable library, round 10) (peptide)
peptide: For-[Hpra′](Man9(3))TSIPYTYLNRSLWTNYRVNSWS[Hpra′](Man9(3))SKNVNV[Hpra′](Man9(3))PLGSGSLGHHHHHHRDYKDDDDK
Regarding B9, in experiment [1], the Fmax came out at 85% and the Kd was 3.9 nM.

B10: glycopeptide 10F12-C2,21S (peptide)
peptide: For-[Hpra′](Man9″)SYVTVIPA[Hpra′](Man9″)N[Hpra′](Man9″)PEARLGIVSH[Hpra′](Man9″)PGIRRGKALYGSGSLGHHHHHHRDYKDDDDK
In [1], B10 displayed an Fmax of 90% and a Kd of 186 nM.

B11: glycopeptide 10F9 (Fixed library, round 10) (peptide)
peptide: For-[Hpra′](Man9(3))RSTLNSLEYR[Hpra′](Man9(3))QYATEDPRIR[Hpra′](Man9(3))ASIPYTYWWPGSGSLGHHHHHHRDYKDDDDK
In [1], B11 gave an Fmax of 86% and a Kd of 3.1 nM.

B12: glycopeptide 10F6 (Fixed library, round 10) (peptide)
peptide: For-[Hpra′](Man9(3))L[Hpra′](Man9(3))FIRIYPTR[Hpra′](Man9(3))QYVYHAPLLT[Hpra′](Man9(3))VR[Hpra′](Man9(3))SPTGPLIGSGSLGHHHHHHRDYKDDDDK
On to B12, for which the results for the equilibrium dissociation constant (Kd) in experiment [3], in experiment [2] and in experiment [1] were 0.5 to 5 nM, 0.5 to 0.6 nM and 0.54 nM, respectively. This molecule also showed an Fmax in experiment [1] of 87%.

B13: glycopeptide 10V1 (Variable library, round 10) (peptide)
peptide: For-[Hpra′](Man9(3))ATKTNCKREKT[Hpra′](Man9(3))DNHVTI[Hpra′](Man9(3))RSIPWYTYRWLPNGSGSLGHHHHHHRDYKDDDDK
In [1], B13 yielded an Fmax of 97% and a Kd of 1.9 nM.

B14: glycopeptide 10F5 (Fixed library, round 10) (peptide)
peptide: For-[Hpra′](Man9(3))SPHLPVLLCK[Hpra′](Man9(3))VLNDGRRIVQ[Hpra′](Man9(3))SCELP[Hpra′](Man9(3))VRRSGSGSLGHHHHHHRDYKDDDDK
modifications: cysteine pairing not given here
Take B14: in [1], the Fmax was found to be 93% and the Kd was 0.97 nM.

B15: glycopeptide 10V8 (Variable library, round 10) (peptide)
peptide: For-[Hpra′](Man9(3))VLPTIISTNVNPFR[Hpra′](Man9(3))LSIPTYTYL[Hpra′](Man9(3))PITWGEIGSGSLGHHHHHHRDYKDDDDK
With B15, the Kd in experiment [4] lay within 0.5 to 5 nM. Moreover, in experiment [1], the Fmax was found to be 94% and the Kd came to 4.6 nM.

B16: glycopeptide 10F3-Δ11 (peptide)
peptide: For-[Hpra′](Man9(3))PNCITQQDVR[Hpra′](Man9(3))TSIPYTYTWPGSGSLGHHHHHHRDYKDDDDK
In experiment [1], B16 came in with an Fmax of 32% and a dissociation constant (Kd) of 25 nM.

B17: glycopeptide 10F8 (Fixed library, round 10) (peptide)
peptide: For-[Hpra′](Man9(3))LLK[Hpra′](Man9(3))VDQSRL[Hpra′](Man9(3))PVPGIGVTLH[Hpra′](Man9(3))RSIPYSYLPIGSGSLGHHHHHHRDYKDDDDK
Consider B17, for which, in experiment [1], the Fmax worked out at 97% and the Kd was found to be 2.6 nM.

B18: biotinylated synthetic 10F2 glycopeptide 3 (peptide)
peptide: For-[Hpra′](Man9″)HPYNTSRTSA[Hpra′](Man9″)[Hpra′](Man9″)AALK[Hpra′](Man9″)QVTD[Hpra′](Man9″)YALALFHRILGSGSGC(maleimide‑biotin)A
As to B18, the Req in experiment [5] worked out at 0.682; in experiment [6] it was 0.481; in experiment [7] it was 1.39; in experiment [8], 1.41; in experiment [9] it was 0.987; in experiment [10], 1.26. For the same molecule, in experiment [11], the Req worked out at 1.37. The Kd in experiment [12] turned out to be 1.37 nM. The same molecule gave a koff in [12] of 0.000151 s⁻¹. In [12], this molecule displayed a kon of 111000 M⁻¹ s⁻¹.

The record behind these values is patent US20160304858A1.
